Numbered stars: 1 amine (or outer) side, 2 acyl side, 3 side chain; on linkers, the order of the positions; unused ones are H or OH. Square brackets hold non-standard residues; d marks the D form. Ends that are not written are not given here. Arg(Me2a) = CN(C)C(=N)NCCC[C@H](N)C(=O)O; Kac = CC(=O)NCCCC[C@H](N[*:1])C(=O)[*:2]; Lys(Me3) = C[N+](C)(C)CCCC[C@H](N)C(=O)O; Arg(Me2s) = CN=C(NC)NCCC[C@H](N)C(=O)O; pT = C[C@@H](OP(=O)(O)O)[C@H](N)C(=O)O; Lys(Me2) = CN(C)CCCC[C@H](N)C(=O)O; Lys(Me) = CNCCCC[C@H](N)C(=O)O; Me2a = not defined here; me2a = not defined here

The assay deals with T1, CaBdf1 BD1 (GST-tagged, wild-type) (Candida albicans (strain SC5314 / ATCC …, UniProt Q5A4W8)).
T1 chain: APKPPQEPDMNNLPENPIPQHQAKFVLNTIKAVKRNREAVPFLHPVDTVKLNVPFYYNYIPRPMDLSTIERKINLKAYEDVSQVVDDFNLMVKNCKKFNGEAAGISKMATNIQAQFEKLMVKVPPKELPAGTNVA
The assay is described as follows: histone peptide array (Active Motif MODified), 1 uM GST-tagged bromodomain, anti-GST detection, normalized mean intensity.
For ARTKQTARKSTGGKAPRKQ (A Rme2a T Kme1 Q T A Rme2a Kme3 S T G G K A P R K Q), the binding score was found to be 0.00435.

Take A[Arg(Me2s)]T[Lys(Me2)]QTA[Arg(Me2a)][Kac]STGGKAPRKQ: the binding score amounted to 0.0402.

In the case of ARTKQTARKSTGGK(Ac)APRKQ, the binding score stood at 0.0319. In the case of A[Arg(Me2s)]TK(Me)QTARK(Me)STGGKAPRKQ it was 0.0029; in that of ARTKQTARKSTGGKAPRKQ (A Rme2a T Kac Q T A Rme2s Kac S T G G K A P R K Q), 0.0334. Molecule ARTKQTARKSTGGKAPRKQ (A R T K Q T A Rme2a Kac S pT G G K A P R K Q) displayed a binding score of 0.00363. Then ARTKQTARKSTGGKAPRKQ (A R T Kme1 Q T A Rme2s Kac S T G G K A P R K Q), with 0.0305. Then AR(Me2s)TK(Me3)QTAR(Me2s)K(Me3)STGGKAPRKQ, with 0.00653; and ARTKQTARKSTGGKAPRKQ (A R T Kme1 Q T A Rme2a Kac S T G G K A P R K Q), with 0.0257; and ARTKQTARKSTGGKAPRKQ (A Rme2s T Kme3 Q T A Rme2s K S T G G K A P R K Q), with 0.0029.

ARTKQTARKSTGGKAPRKQ (A Rme2s T Kme3 Q T A R Kme1 S T G G K A P R K Q) yielded a binding score of 0.00471.

On to ARTKQTARKSTGGKAPRKQ (A Rme2a T Kme2 Q T A Rme2a K S T G G K A P R K Q), for which the binding score came to 0.00508. In the case of ARTKQTARKSTGGKAPRKQ (A R T Kme3 Q T A Rme2a Kme2 S T G G K A P R K Q) it was 0.00254; in that of ARTK(Me)QTAR(Me2a)K(Me2)STGGKAPRKQ (reading uncertain), 0.0138; in that of ARTKQTARKSTGGKAPRKQ (A R T K Q T A R Kme2 S T G G Kac A P R K Q), 0.0315. In the case of A[Arg(Me2a)]T[Lys(Me)]QTA[Arg(Me2a)][Lys(Me2)]STGGKAPRKQ it was 0.0029. Then AR(me2s)TK(Ac)QTAR(me2a)K(me2)STGGKAPRKQ (reading uncertain), with 0.00979; and ARTKQTARKSTGGKAPRKQ (A R T Kac Q T A Rme2s Kme1 S T G G K A P R K Q), with 0.00508. The molecule ARTKQTARKSTGGKAPRKQ (A R T Kme3 Q T A Rme2s Kac S T G G K A P R K Q) returned a binding score of 0.0286. In the case of ARTKQTARKSTGGKAPRKQ (A R T K Q T A Rme2a Kac pS pT G G K A P R K Q) it was 0.00616. Then ARTK(Ac)QTAR(me2s)K(Ac)STGGKAPRKQ, with 0.0729. The molecule ARTKQTARKSTGGKAPRKQ (A Rme2s T Kme2 Q T A R Kme3 S T G G K A P R K Q) came in with a binding score of 0.00145. Then ARTK(me2)QTAR(me2s)K(me3)STGGKAPRKQ, with 0.0029; and ARTKQTARKSTGGKAPRKQ (A R T Kme3 Q T A Rme2a Kme1 S T G G K A P R K Q), with 0.00435.

Turning to AR(me2s)TK(me2)QTAR(me2s)K(me3)STGGKAPRKQ, the binding score was 0.00218.

As to ARTKQTARKSTGGKAPRKQ (A R T K Q T A R Kme3 S T G G Kac A P R K Q), the binding score came out at 0.0225. In the case of ARTKQTARKSTGGKAPRKQ (A R T Kme3 Q T A Rme2s Kme1 S T G G K A P R K Q) it was 0.00471; in that of ARTKQTARKSTGGKAPRKQ (A Rme2a T Kme3 Q T A Rme2a K S T G G K A P R K Q), 0.00363. In the case of ARTKQTARKSTGGKAPRKQ (A Rme2a T Kme2 Q T A Rme2a Kac S T G G K A P R K Q) it was 0.0395; in that of ARTKQTARKSTGGKAPRKQ (A R T K Q T A Rme2a Kme2 S T G G K A P R K Q), 0.0029; in that of ARTK(me2)QTAR(me2s)K(Me)STGGKAPRKQ, 0.00544. Consider AR(me2a)TK(Me)QTARKSTGGKAPRKQ (reading uncertain), for which the binding score was found to be 0.0029. Take ARTKQTARKSTGGKAPRKQ (A Rme2s T Kme2 Q T A Rme2a Kme3 S T G G K A P R K Q): the binding score was determined as 0.00508. In the case of A[Arg(Me2s)]T[Lys(Me2)]QTAR[Lys(Me)]STGGKAPRKQ it was 0.00544; in that of ARTKQTARKSTGGKAPRKQ (A Rme2s T Kme2 Q T A Rme2s Kac S T G G K A P R K Q), 0.0239.

A[Arg(Me2s)]T[Lys(Me)]QTA[Arg(Me2a)][Lys(Me2)]STGGKAPRKQ came in with a binding score of 0.00471. For ARTKQTARKSTGGKAPRKQ (A R T Kme1 Q T A Rme2s Kme2 S T G G K A P R K Q), the binding score amounted to 0.00471. In the case of AR(Me2a)[pT]KQTARKSTGGKAPRKQ (reading uncertain) it was 0.00181; in that of ARTKQTARKSTGGKAPRKQ (A Rme2s T Kme1 Q T A Rme2s Kme1 S T G G K A P R K Q), 0.00326. Then ARTKQTARKSTGGKAPRKQ (A Rme2s T Kme1 Q T A Rme2s K S T G G K A P R K Q), with 0.00326; and A[Arg(Me2a)]T[Lys(Me3)]QTA[Arg(Me2a)][Lys(Me2)]STGGKAPRKQ, with 0.00254; and A[Arg(Me2a)]T[Lys(Me3)]QTAR[Kac]STGGKAPRKQ, with 0.0344.

Molecule AR(Me2s)TK(Me3)QTAR(Me2s)K(Ac)STGGKAPRKQ came in with a binding score of 0.017. Molecule ARTKQTARKSTGGKAPRKQ (A R T K Q T A Rme2a K S pT G G K A P R K Q) yielded a binding score of 0.00399. With ARTKQTARKSTGGKAPRKQ (A Rme2s T Kme1 Q T A Rme2a Kac S T G G K A P R K Q), the binding score was 0.0381.

Consider ARTKQTARKSTGGKAPRKQ (A Rme2a T Kme3 Q T A Rme2s Kme3 S T G G K A P R K Q), for which the binding score worked out at 0.00508. Then A[Arg(Me2a)]TK(Ac)QTA[Arg(Me2a)][Lys(Me3)]STGGKAPRKQ, with 0.00834; and ARTKQTARKSTGGKAPRKQ (A Rme2s T Kme3 Q T A Rme2a Kme2 S T G G K A P R K Q), with 0.0029. Then ARTKQTARKSTGGKAPRKQ (A R T K Q T A R Kac S pT G G K A P R K Q), with 0.00544. In the case of A[Arg(Me2s)]T[Lys(Me3)]QTA[Arg(Me2a)][Lys(Me3)]STGGKAPRKQ it was 0.00363. For ARTKQTARKSTGGKAPRKQ (A Rme2a T Kme2 Q T A Rme2a Kme3 S T G G K A P R K Q), the binding score was found to be 0.00254.

On to ARTKQTARKSTGGKAPRKQ (A Rme2s T Kme3 Q T A R Kme3 S T G G K A P R K Q), for which the binding score amounted to 0.00254. In the case of ARTK(me3)QTAR(me2a)K(me3)STGGKAPRKQ (reading uncertain) it was 0.00508. Then ARTK(Me2)QTAR(Me2a)K(Me3)STGGKAPRKQ (reading uncertain), with 0.00181; and AR(Me2a)TK(Me2)QTAR(Me2s)K(Me3)STGGKAPRKQ (reading uncertain), with 0.00145.

ARTKQTARKSTGGKAPRKQ (A Rme2a T Kme2 Q T A R Kac S T G G K A P R K Q) returned a binding score of 0.0337.
